Data taken from paper PMC7998613, “Annexin A2 Flop-Out Mediates the Non-Vesicular Release of DAMPs/Alarmins from C6 Glioma Cells Induced by Serum-Free Conditions” (Cells, 2021).

Legend:
[1] = target: T1, recombinant Strep-tagII-S100A13 protein; assay: ELISA; vehicle 0.05% DMSO
T1 chain: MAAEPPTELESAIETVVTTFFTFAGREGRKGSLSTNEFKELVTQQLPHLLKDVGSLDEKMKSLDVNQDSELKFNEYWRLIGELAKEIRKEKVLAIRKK

[2] = target: the molecule itself; assay: SDS-resistant band on the immunoblot of the pull-down eluate; The Strep-tagII-S100A13 pull-down eluate from the C6 glioma cytosolic fraction was run on SDS-PAGE and blotted with anti-ANXA2. The 63 kDa band is read as the ANXA2 dimer.
[3] = target: T1, recombinant Strep-tagII-S100A13 protein; assay: ELISA; 100 uM amlexanox

Kd [1]: 416 nM
Kd [3]: 418 nM
B1: annexin A2 (ANXA2), endogenous in C6 glioma cells (natural protein, rat (endogenous in C6 glioma cells), UniProt Q07936 1-339, looked up)
chain: MSTVHEILCKLSLEGDHSTPPSAYGSVKPYTNFDAERDALNIETAIKTKGVDEVTIVNILTNRSNAQRQDIAFAYQRRTKKELPSAMKSALSGHLETVMLGLLKTPAQYDASELKASMKGLGTDEDSLIEIICSRTNQELQEINRVYKEMYKTDLEKDIISDTSGEFRKLLVALAKGKRAEDGSVIDYELIDQDARELYDAGVKRKGTDVPKWISIMTERSVCHLQKVFERYKSYSPYDMLESIRKEVKGDLENAFLNLVQCIQNKPLYFADRLYDSMKGKGTRDKVLIRIMVSRSEVDMLKIRSEFKRKYGKSLYYFIQQDTKGDYQKALLYLCGGDD
notes: annexin A2, rat, endogenous in C6 glioma cells; In whole cell extracts it ran as a single band; also called dimeric ANXA2 of 63 kDa; ANXA2 dimer; source: endogenous, rat C6 glioma cells (cytosolic fraction; fixed cells for in situ PLA)
stoichiometry N [2]: 2
